The record followed here is patent US7432070B2, “Homogenous assay for enzymatic activity” (Pierce Biotechnology, Inc., priority 2003, dated 2008).

Non-standard residues stand in square brackets, D forms with d. No end group written: not given here. pS = N[C@@H](COP(=O)(O)O)C(=O)O; Nva = CCC[C@H](N)C(=O)O

In one experiment the target is T1, Calpain 1 (Homo sapiens, UniProt P07384).
T1 construct: Calpain 1 from human erythrocytes; purchased Calbiochem; host or cells: human erythrocytes
T1 sequence (P07384 1-714): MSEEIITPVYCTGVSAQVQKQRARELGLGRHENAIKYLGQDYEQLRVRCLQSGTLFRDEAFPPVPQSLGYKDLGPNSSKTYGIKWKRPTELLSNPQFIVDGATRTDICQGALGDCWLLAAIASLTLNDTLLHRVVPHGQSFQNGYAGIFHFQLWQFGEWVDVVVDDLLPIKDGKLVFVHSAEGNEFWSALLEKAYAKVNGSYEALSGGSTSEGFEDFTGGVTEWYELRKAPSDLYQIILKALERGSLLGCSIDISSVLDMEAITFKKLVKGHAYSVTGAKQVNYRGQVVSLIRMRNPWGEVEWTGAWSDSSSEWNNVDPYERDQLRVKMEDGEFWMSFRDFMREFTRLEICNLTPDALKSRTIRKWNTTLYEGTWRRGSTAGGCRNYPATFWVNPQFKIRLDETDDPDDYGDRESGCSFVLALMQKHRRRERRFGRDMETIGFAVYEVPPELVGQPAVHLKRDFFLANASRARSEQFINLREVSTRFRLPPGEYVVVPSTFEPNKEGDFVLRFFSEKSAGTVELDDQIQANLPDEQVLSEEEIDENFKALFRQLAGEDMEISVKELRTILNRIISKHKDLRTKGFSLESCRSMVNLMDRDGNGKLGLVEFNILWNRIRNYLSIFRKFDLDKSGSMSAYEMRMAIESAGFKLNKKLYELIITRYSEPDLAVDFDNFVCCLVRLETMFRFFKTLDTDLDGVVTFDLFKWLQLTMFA
T1 sequence (P04632 1-268 partner): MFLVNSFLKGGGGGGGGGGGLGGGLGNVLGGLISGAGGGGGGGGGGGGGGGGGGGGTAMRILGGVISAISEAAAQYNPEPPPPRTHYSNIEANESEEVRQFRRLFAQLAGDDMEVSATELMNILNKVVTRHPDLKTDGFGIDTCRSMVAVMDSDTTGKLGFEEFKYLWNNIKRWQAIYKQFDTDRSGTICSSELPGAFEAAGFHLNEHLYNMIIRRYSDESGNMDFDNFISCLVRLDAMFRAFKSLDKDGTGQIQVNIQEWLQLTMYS
In words: Km determination for Calpain 1 using the protease assay. The experiment is classed as biochemical. The conditions noted are these: substrate at 0.078, 0.15, 0.31 and 0.62 μM, 13.15 U/ml Calpain 1, 5 minutes, room temperature, N=3; read-out: Km of labeled peptide substrate for Calpain 1. The protocol: (§1) Pepsin A was purchased from Sigma. TPCK Trypsin was obtained from Pierce Biotechnology.
Calpain 1 Lissamine rhodamine-labeled peptide substrate (Dye-[…] PRDpSA) (SEQ. ID NO 3) at 0.078, 0.15, 0.31 and 0.62 μM were digested with 13.15 U/ml Calpain 1. The Lissamine rhodamine-labeled peptide was prepared in 25 mM Tris, 150 mM NaCl pH 7.5, 10 mM CaCl2, and Calpain 1 was prepared in 25 mM Tris, 150 mM NaCl pH 7.5. […] N=3.

A further experiment concerns the target T2, MMP-3 (Homo sapiens, UniProt P08254).
T2 construct: Recombinant MMP-3 catalytic subunit; purchased Calbiochem
Kind of experiment: Km determination for MMP-3 using the protease assay. The experiment is classed as biochemical. The conditions noted are these: substrate at 1, 2, 5 and 10 μM, 0.88 mU/ml MMP-3, 5 minutes, room temperature, N=3; read-out: Km of labeled peptide substrate for MMP-3.
Description: as §1

T2 sequence (P08254 100-272 limits assumed, species assumed): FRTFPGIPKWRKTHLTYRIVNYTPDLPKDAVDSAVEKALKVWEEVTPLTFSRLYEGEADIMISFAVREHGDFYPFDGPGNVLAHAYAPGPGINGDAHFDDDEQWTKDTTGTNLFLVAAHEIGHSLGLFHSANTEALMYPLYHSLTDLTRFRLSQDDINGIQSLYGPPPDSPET

Take “Dye-QQQEVYGMM PRDpSA: Calpain 1 Lissamine rhodamine-labeled peptide substrate, label at the N-terminus ({Lissamine rhodamine}-QQQEVYGMMPRD[pS]A)”: the Km with Calpain 1 is 0.17 ± 0.01 µM.

Regarding “Dye-RPKPVE-Norvaline-WRKpSA: MMP-3 Lissamine rhodamine-labeled peptide substrate, label at the N-terminus ({Lissamine rhodamine}-RPKPVE[Nva]WRK[pS]A)”, the Km with MMP-3 is 1.44 ± 0.15 µM.
